# What was measured:
# [1] = biological target: T1, Human IL-18BP (amino acids 31-194), biotinylated (human, UniProt O95998 31-194, biotin on the AviTag (BirA ligase) where used biotinylated); assay: on-yeast binding isotherms; KD for IL-18BP over KD for IL-18Rα
# T1 construct: Soluble decoy receptor; also called hIL-18BP; recombinant IL-18BP
# T1 sequence: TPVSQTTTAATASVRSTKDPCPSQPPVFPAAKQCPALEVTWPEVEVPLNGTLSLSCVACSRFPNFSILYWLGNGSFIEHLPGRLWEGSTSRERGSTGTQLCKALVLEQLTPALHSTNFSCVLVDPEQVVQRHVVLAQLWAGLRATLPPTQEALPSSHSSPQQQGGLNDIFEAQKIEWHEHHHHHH
# [2] = biological target: T1, Human IL-18BP (amino acids 31-194), …; assay: SPR (Biacore T100), IL-18BP captured via biotin, IL-18 as analyte
# Method: (§1) Experiments were conducted using a Biacore T100 and carried out at 25° C. Biotinylated IL-18Rα or IL-18BP were immobilized onto a Biacore biotin capture chip (Series S CAP sensor chip, GE Healthcare) to yield an Rmax of ˜50 RU (IL-18Rα) or ˜10 RU (IL-18BP). Measurements were made with serial dilutions of the IL-18 variants in HEPES buffered Saline-P+buffer (10 mM HEPES pH 7.4, 150 mM NaCl, 0.005% surfactant P20). The surface was regenerated by three 60-sec injections of regeneration buffer (3/4 (v/v) 8M guanidine hydrochloride with 1/4 (v/v) 1M sodium hydroxide). Experiments were performed in multiple channels simultaneously for increased observations. All data were analyzed with the Biacore T100 evaluation software version 2.0 with a 1:1 Langmuir binding model.
# (§2) To additionally characterize the receptor binding activities of the DR-IL-18 variants, the cytokines were expressed recombinantly and surface plasmon resonance for IL-18Rα and IL-18BP was performed (see FIG. 5B for representative traces).
# [3] = biological target: T1, Human IL-18BP (amino acids 31-194), …; assay: SPR; KD for IL-18BP over KD for IL-18Rα
# Method: as §1, §2
# [4] = biological target: T1, Human IL-18BP (amino acids 31-194), …; assay: SPR, immobilized biotinylated hIL-18BP, representative sensorgram FIG. 5B; representative sensorgram, FIG. 5B; single run, not the average
# Method: (§3) By contrast, very little binding is observed with the same variants and hIL-18BP (right).
# as §1
# [5] = biological target: T2, Human IL-18Rα ectodomain (amino acids 19-329), biotinylated (human, UniProt Q13478 19-329, biotin on the AviTag (BirA ligase)); assay: on-yeast binding isotherm (flow cytometry), drawn summary table, IL18Rα (KD)
# T2 construct: range 19-329; Secreted from insect cells (gp67 signal peptide removed); also called hIL-18Rα; hIL18Rα
# T2 sequence: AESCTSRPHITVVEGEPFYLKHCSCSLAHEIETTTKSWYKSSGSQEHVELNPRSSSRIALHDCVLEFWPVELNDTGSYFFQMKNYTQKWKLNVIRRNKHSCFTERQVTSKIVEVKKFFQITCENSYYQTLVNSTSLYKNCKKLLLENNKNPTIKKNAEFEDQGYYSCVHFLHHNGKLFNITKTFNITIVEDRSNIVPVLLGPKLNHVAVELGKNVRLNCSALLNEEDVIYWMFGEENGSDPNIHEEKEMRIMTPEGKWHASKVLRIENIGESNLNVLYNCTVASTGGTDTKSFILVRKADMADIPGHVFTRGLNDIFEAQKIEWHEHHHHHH
# Method: (§4) Individual colonies of IL-18 yeast were grown overnight at 30° C. in SDCAA liquid media and induced in SGCAA liquid media for 1 day at 20° C. IL-18 display levels on yeast were verified by flow cytometry using an anti-cMyc tag antibody (anti-myc-PE; Cell Signaling Technologies). Receptor staining with biotinylated IL-18Rα (with or without IL-18R β) or biotinylated IL-18BP was performed in PBS supplemented with 0.5% BSA and 2 mM EDTA (PBE) on ice. All analysis was performed on a Sony SA3800 flow cytometer.
# [6] = biological target: T1, Human IL-18BP (amino acids 31-194), …; assay: on-yeast binding isotherm (flow cytometry), drawn summary table, column IL18BP (KD)
# Method: as §4
# [7] = biological target: T2, Human IL-18Rα ectodomain (amino acids …); assay: SPR (Biacore T100), receptor captured via biotin, IL-18 as analyte
# Method: as §1, §2
# [8] = biological target: T1, Human IL-18BP (amino acids 31-194), …; assay: SPR; KD ratio relative to WT IL-18
# Method: as §1, §2
# [9] = biological target: T1, Human IL-18BP (amino acids 31-194), …; assay: on-yeast binding isotherms; KD ratio relative to WT IL-18
# [10] = biological target: T1, Human IL-18BP (amino acids 31-194), …; assay: SPR, single-cycle injections of 1.5, 4.5, 13.5, 40.5 and 121.5 nM over immobilized biotinylated hIL-18BP; the sheet prints two constants, KD1 and KD2 (KD2 = 15.2 nM is the value in the text)
# Method: as §3, §1
# [11] = biological target: T1, Human IL-18BP (amino acids 31-194), …; assay: on-yeast binding isotherm (flow cytometry)
# [12] = biological target: T1, Human IL-18BP (amino acids 31-194), …; assay: on-yeast binding isotherm (flow cytometry); members per FIG. 5A legend
# Method: as §4, §2
# [13] = biological target: T2, Human IL-18Rα ectodomain (amino acids …); assay: SPR; average of 2 studies
# [14] = biological target: T1, Human IL-18BP (amino acids 31-194), …; assay: SPR; average of 2 studies
# [15] = biological target: T1, Human IL-18BP (amino acids 31-194), …; assay: SPR; KD(IL-18BP)/KD(IL-18Rα) normalized to WT IL-18
# [16] = biological target: T1, Human IL-18BP (amino acids 31-194), …; assay: on-yeast binding isotherms; KD ratio relative to WT IL-18; yeast-displayed variant; ratio normalized to WT, from the 20 µM placeholder
# [17] = biological target: T1, Human IL-18BP (amino acids 31-194), …; assay: on-yeast binding isotherms; 20 µM used for NBD; yeast-displayed variant, flow cytometry; ratio computed with 20 µM put in for NBD
# [18] = biological target: T3, Mouse IL-18BP (amino acids 31-194), biotinylated (mouse, UniProt Q9Z0M9 29-193, biotin on the AviTag (BirA ligase)); assay: SPR; range of a group, this end tied to A7 by the 9th table; m is a multiple of 1,000,000
# T3 construct: also called mIL-18BP
# T3 sequence: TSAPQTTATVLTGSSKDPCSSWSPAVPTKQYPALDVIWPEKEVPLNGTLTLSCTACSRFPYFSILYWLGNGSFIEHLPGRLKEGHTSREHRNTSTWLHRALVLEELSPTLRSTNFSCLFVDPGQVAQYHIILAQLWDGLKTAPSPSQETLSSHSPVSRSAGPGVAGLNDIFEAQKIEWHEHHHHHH
# [19] = biological target: T3, Mouse IL-18BP (amino acids 31-194), …; assay: SPR (Biacore T100), IL-18BP captured via biotin, IL-18 as analyte; SPR, soluble variant
# Method: as §1
# [20] = biological target: T4, Mouse IL-18Rα ectodomain (amino acids 19-329), biotinylated (mouse, UniProt Q61098 19-329, biotin on the AviTag (BirA ligase)); assay: on-yeast binding isotherm (flow cytometry)
# T4 construct: range 19-329; Secreted from Expi293 cells (H7 signal peptide removed); also called mIL-18Rα; mIL18Ra
# T4 sequence: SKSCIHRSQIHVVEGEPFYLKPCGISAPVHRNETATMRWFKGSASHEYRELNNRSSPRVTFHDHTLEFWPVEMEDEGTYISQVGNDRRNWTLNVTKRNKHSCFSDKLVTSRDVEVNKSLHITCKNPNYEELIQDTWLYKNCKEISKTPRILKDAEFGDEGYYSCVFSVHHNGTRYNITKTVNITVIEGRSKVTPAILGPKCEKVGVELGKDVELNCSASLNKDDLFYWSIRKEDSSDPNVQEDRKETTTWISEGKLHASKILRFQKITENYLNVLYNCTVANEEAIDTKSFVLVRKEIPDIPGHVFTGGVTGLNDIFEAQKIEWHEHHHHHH
# Method: as §4
# [21] = biological target: T3, Mouse IL-18BP (amino acids 31-194), …; assay: on-yeast binding isotherms; KD ratio relative to WT IL-18; yeast-displayed variant; ratio normalized to WT, from the 10 µM placeholder
# Method: as §4
# [22] = biological target: T3, Mouse IL-18BP (amino acids 31-194), …; assay: SPR; KD for IL-18BP over KD for IL-18Rα; SPR; ratio of two measured KD
# Method: as §1
# [23] = biological target: T3, Mouse IL-18BP (amino acids 31-194), …; assay: yeast binding isotherms and SPR; members per FIG. 11A legend
# Method: as §4, §1
# [24] = biological target: T3, Mouse IL-18BP (amino acids 31-194), …; assay: on-yeast binding isotherms; 10 µM used for NBD; yeast-displayed variant; ratio computed with 10 µM put in for NBD
# Method: as §4
# [25] = biological target: T3, Mouse IL-18BP (amino acids 31-194), …; assay: SPR; KD ratio relative to WT IL-18; SPR; ratio normalized to WT
# Method: as §1
# [26] = biological target: T4, Mouse IL-18Rα ectodomain (amino acids …); assay: SPR (Biacore T100), receptor captured via biotin, IL-18 as analyte
# Method: as §1
binder,measurement,setting,value
"SEQ ID NO: 34 (human DR-IL-18 variant hCS1) (ligand, Engineered variant) YFGKLESKLSVIRNLNDQVLFIDQGNRPLFEDMTDSDCRDNAPRTIFIISTYKDSQPRGKAVTISVKCEKISTLSCENKIISFKEMNPPDNIKDTKSDIIFFQRDVPGHKHKMQFESSSYEGYFLACEKERDLFKLILKKEDELGDRSIMFTVQNED",KD ratio IL-18BP/IL-18Rα,[1],300
same,Kd,[2],19.4 nM
same,KD ratio IL-18BP/IL-18Rα,[3],2.41
same,Kd,[4],15.2 nM
same,Kd,[5],146 nM
same,Kd,[6],710 nM
same,Kd,[7],8.05 nM
same,Dissociation Constant Ratio normalized to WT IL-18,[8],3720
same,Dissociation Constant Ratio normalized to WT IL-18,[9],1020
same,KD1 (first of two fitted dissociation constants),[10],36.7 nM
same,Kd,[11],19300 nM
same,EC50,[12],> 1000 nM
same,Kd,[13],8 nM
same,Kd,[14],11.8 nM
same,IL-18 BP:Rα Dissociation Constant Ratio,[15],3020
"SEQ ID NO: 35 (human DR-IL-18 variant hCS2) (ligand, Engineered variant) YFGKLESKLSVIRNLNDQVLFIDQGNRPLFEDMTDSDCRDNAPRTIFIISTYKDKQPRAKAVTISVKCEKISTLSCENKIISFKEMNPPDNIKDTKSDIIFFQRDVPGHKHKMQFESSSYEGYFLACEKERDLFKLILKKEDELGDRSIMFTIQNED",Dissociation Constant Ratio normalized to WT IL-18,[16],> 741
same,Kd,[5],92 nM
same,Kd,[7],13.1 nM
same,KD ratio IL-18BP/IL-18Rα,[17],> 219
"SEQ ID NO: 70 (murine DR-IL-18 variant mA7) (ligand, Engineered variant) YFGRLHCTTAVIRNINDQVLFVDKRQPVFEDMTDIDQSASEPQTRLIIYAYGDNRVRGKAVTLSVKDSKMSTLSCKNKIISFEEMDPPENIDDIQSDLIFFQKRVPGHNKMEFESSLYEGHFLACQKEDDAFKLILKKKDENGDKSVMFTLTNLHQS",IL-18 BP:Rα Dissociation Constant Ratio,[18],3.5e+07
same,Kd,[19],13900 nM
same,Kd,[20],13.5 nM
same,Dissociation Constant Ratio normalized to WT IL-18,[21],> 3930
same,KD ratio IL-18BP/IL-18Rα,[22],63200
same,Kd,[23],> 1000 nM
same,KD ratio IL-18BP/IL-18Rα,[24],> 741
same,Dissociation Constant Ratio normalized to WT IL-18,[25],3.45e+07
same,Kd,[26],0.22 nM

# Reference: US20230277625A1 (SIMCHA IL 18, published 2023)
